To fix the notation:
B1: 39A5 human IgG1 (antibody, V domains shown)
VH: QVQLVQPGAELRNPGASVKVSCKASGYRFTSYYIDWVRQAPGQGLEWMGRIDPEDGGTKYAQKFQGRVTFTRDTSTSTVYMELSSLRSEDTAVYYCARNEWETVVVGDLMYEYEYWGQGTLVT
VL: DIQMTQSPSSLSASLGDRVTITCQASQSISSYLAWYQQKPGQAPKLLIYGASRLKTGVPSRFSGSGSGTDFTLTISSLQPEDAATYYCQQYASVPVTFGQGTKVEIK
notes: Full human IgG1, made in HEK 293E cells
B2: 39B6 human IgG1 (antibody, V domains shown)
VH: QVQLVQPGAEVRKPGASVKVSCKASGYRFTSYYIDWVRQAPGQGLEWMGRIDPEDGGTKYAQKFQGRVTMTADTSTSTVYVELSSLRSEDTAVYYCARNEWETVVVGDLMYEYEYWGQGTLVTVSS
VL: B1 VL with L15V, L46I, D70S, Q79E
notes: as for B1
B3: 39B10 human IgG1 (antibody, V domains shown)
VH: B2 VH with Q1E, P7S, V11L, R12K, D55E, V79A, V81M
VL: B1 VL with K45N, L46I, S77G, Q79E, P80A, A83F
notes: as for B1
B4: 38F2 human IgG1 (antibody, V domains shown)
VH: B2 VH with V11L, R12K, G56A, M70F, M110T
VL: DIQMTQSPSSLSASVGDRVTITCQASQSISSYLAWYQQKPGKAPNLLIYGASRLKTEVPSRFSGSGSGTDFTLISGLEPEDAGTYYCQQYASVPVTFGQGTKVEIK
notes: as for B1
B5: 39A12 human IgG1 (antibody, V domains shown)
VH: B2 VH with Q1E, R12K, D55E, M70F, M110T
VL: B1 VL with L15V, L46I, P80A, A83F
notes: Full human IgG1, made in HEK 293E cells; also called 39A12_T
B6: 39B6-A IgG4 S228P (antibody, V domains shown)
VH: B2 VH with G56A
VL: DIQMTQSPSSLSASVGDRVTITCQASQSISSYLAWYQQKPGQAPKILIYGASRLKTGVPSRFSGSGSGTSFTLTISSLEPEDAATYYCQQYASVPVTFGQGTKVEIKR
notes: 39B6 with G55A in HCDR2, in the human IgG4 S228P backbone; also called 39B6-ANE
B7: 39B6-AEE IgG4 S228P (antibody, V domains shown)
VH: B2 VH with G56A, N99E
VL: B6 VL
B8: Fab 38F2 (Fab, V domains shown)
VH: B2 VH with V11L, R12K, G56A, M70F, M110T
VL: B4 VL
notes: Germlined Fab with human CH1 and Cκ (pCB13), tested as periplasmic extract
B9: Fab 39B6 (Fab, V domains shown)
VH: B2 VH
VL: B1 VL with L15V, L46I, D70S, Q79E
notes: as for B8
B10: Fab 39B10 (Fab, V domains shown)
VH: B2 VH with Q1E, P7S, V11L, R12K, D55E, V79A, V81M
VL: B1 VL with K45N, L46I, S77G, Q79E, P80A, A83F
notes: as for B8
B11: Fab 39A12 (Fab, V domains shown)
VH: B2 VH with Q1E, R12K, D55E, M70F, M110T
VL: B1 VL with L15V, L46I, P80A, A83F
notes: Germlined Fab from the phage library with human CH1 and Cκ (pCB13), tested as periplasmic extract

The results in this text go back to US20210324061A1 (ARGENX BVBA, published 2021).

Substitutions are numbered along the chain they refer to. In names and notes the source's numbering stands.

T1 sequence (Q14392 20-627 limits assumed, chain 1 of 3): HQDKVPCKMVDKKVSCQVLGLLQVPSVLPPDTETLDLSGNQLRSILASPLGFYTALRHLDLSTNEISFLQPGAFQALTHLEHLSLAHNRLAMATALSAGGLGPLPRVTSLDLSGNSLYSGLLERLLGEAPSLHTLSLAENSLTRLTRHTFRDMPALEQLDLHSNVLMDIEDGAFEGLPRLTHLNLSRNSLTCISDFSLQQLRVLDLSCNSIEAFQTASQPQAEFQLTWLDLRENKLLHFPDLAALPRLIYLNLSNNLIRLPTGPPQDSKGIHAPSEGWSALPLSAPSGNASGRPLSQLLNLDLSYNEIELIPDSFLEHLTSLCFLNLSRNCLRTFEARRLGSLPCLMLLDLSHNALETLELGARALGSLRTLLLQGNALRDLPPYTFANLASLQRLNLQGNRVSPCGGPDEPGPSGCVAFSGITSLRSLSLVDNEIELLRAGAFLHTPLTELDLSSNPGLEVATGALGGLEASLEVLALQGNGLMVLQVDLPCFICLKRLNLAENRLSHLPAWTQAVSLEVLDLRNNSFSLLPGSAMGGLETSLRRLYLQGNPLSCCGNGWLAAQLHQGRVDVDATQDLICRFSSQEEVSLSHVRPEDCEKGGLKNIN
T1 sequence (P01137 30-278 limits assumed, chain 2 of 3): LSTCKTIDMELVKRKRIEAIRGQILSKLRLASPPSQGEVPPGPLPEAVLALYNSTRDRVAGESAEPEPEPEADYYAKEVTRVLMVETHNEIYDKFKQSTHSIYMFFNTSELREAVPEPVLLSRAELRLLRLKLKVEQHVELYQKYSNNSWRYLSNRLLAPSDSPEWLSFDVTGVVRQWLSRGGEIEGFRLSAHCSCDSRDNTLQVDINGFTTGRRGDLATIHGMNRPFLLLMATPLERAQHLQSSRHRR
T1 sequence (P01137 279-390 limits assumed, chain 3 of 3): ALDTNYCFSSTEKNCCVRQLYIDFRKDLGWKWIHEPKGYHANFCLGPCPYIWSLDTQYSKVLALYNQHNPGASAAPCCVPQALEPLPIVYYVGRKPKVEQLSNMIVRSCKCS

The first test has as its target T1, human GARP-TGF-β1 complex (recombinant complex of human GARP and latent human TGF-β1) (human, UniProt Q14392 20-627; P01137 30-278; P01137 279-390).
T1 construct: also called huGARP-TGF-β1; hGARP-TGF-β1
The experiment in a line: SPR, IgG1 on human GARP-TGF-β1 complex. The text has this: The five germlined clones reformatted to human IgG1 were produced by transient transfection in HEK 293E cells.
Background: In SPR one partner is held on a chip, and binding of the other changes the refractive index at the surface.
Take B1: the Kd turned out to be 0.298 nM and the “fold difference (KD vs 17H5)” value turned out to be 3 fold.

Turning to B2, the Kd was 0.167 nM and the “fold difference (KD vs 17H5)” value was 1.7 fold.

B3: the Kd amounted to 0.262 nM and the “fold difference (KD vs 17H5)” value turned out to be 2.6 fold.

B4: the Kd was found to be 0.48 nM and the “fold difference (KD vs 17H5)” value was 4.8 fold.

Consider B5, for which the Kd is 0.505 nM and the “fold difference (KD vs 17H5)” value is 5.1 fold.

Another test addresses T1, human GARP-TGF-β1 complex (recombinant …). In words: SPR Biacore T200, CM5 chip coated with GARP-TGF-β1 complex at 150 RU. On the procedure:
(§1) The affinity of all antibodies (including 39B6-A) for GARP-TGF-β1 was tested by BiacoreT200 using a CM5 chip coated with GARP-TGF-β1 complex at 150RU (Table 17) or coated with the antibodies at 200RU (Table 17)
With B6, the “Fold-difference (KD vs 39B6-A)” value came out at 1 fold and the Kd was determined as 0.991 nM.

Turning to B7, the “Fold-difference (KD vs 39B6-A)” value amounted to 5.8 fold and the equilibrium dissociation constant (Kd) is 5.79 nM.

The target is the same in a further test. In words: SPR, Fab in periplasmic extract, off-rate on human GARP-TGF-β1 complex. As for the experimental part:
Masterplates were picked from selection round 2, 3, 4, 5 and 6 (48 clones for each round). Periplasmic extracts were prepared and off-rates were determined by SPR. All clones were DNA-sequenced and amino acid sequences were deduced thereof. The off-rates of these clones were measured as periplasmic extracts on SPR, and compared to the off-rate of Fab 17H5.
Turning to B8, the koff came out at 0.000408 s⁻¹.

Turning to B9, the koff amounted to 0.000105 s⁻¹.

B10: the koff was found to be 0.000236 s⁻¹.

As to B11, the koff came to 0.000606 s⁻¹.

For a further test the target is unchanged. The experiment in a line: SPR Biacore T200, CM5 chip coated with the antibody at 200 RU, complex in solution. On the procedure:
as §1
With B6, the “Fold-difference (KD vs 39B6-A)” value stood at 1 fold and the Kd came out at 1.33 nM.

Consider B7, for which the “Fold-difference (KD vs 39B6-A)” value was determined as 76.7 fold and the Kd was determined as 102 nM.

The term Kd denotes the constant that tells how readily two partners part at equilibrium. As a reminder, the koff is the rate constant with which the complex falls apart.
